Results as given in patent US20250152746A1, “BASE EDITING OF ANGPTL3 AND METHODS OF USING SAME FOR TREATMENT OF DISEASE” (Verve Therapeutics, Inc., priority 2020, published 2025).
In the oligonucleotide strings, read from the 5' end, every base follows the letter of its sugar. An asterisk marks phosphorothioate; unmarked linkages are phosphodiester. Other units and linkages are bracketed, terminal groups are in braces. A string of capitals states the bases alone. m = 2'-O-methyl; r = 2'-OH (RNA)

Tests used:
[1] = test system: PCSK9 gene; experiment: PCSK9 gRNA/SpCas9 editing in primary cynomolgus hepatocytes (Tables 2, 22); format: cell-based, cynomolgus monkey; conditions: SpCas9 mRNA MS002 1:1 by weight; for Cyno Primary Hepatocyte Editing % 100: 100 ng/RNA/mL; for Cyno Primary Hepatocyte Editing % 500: 500 ng/RNA/mL; for Cyno Primary Hepatocyte Editing % 2500: 2500 ng/RNA/mL
[2] = test system: PCSK9 gene; experiment: PCSK9 gRNA/SpCas9 editing in primary human hepatocytes (Tables 2, 4); format: cell-based; conditions: SpCas9 mRNA MS002 1:1 by weight; for Human Primary Hepatocyte Editing % 100: 100 ng/RNA/mL; for Human Primary Hepatocyte Editing % 500: 500 ng/RNA/mL; for Human Primary Hepatocyte Editing % 2500: 2500 ng/RNA/mL
How it was run: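 Primary human hepatocytes co-transfected with PCSK9 gRNA plus SpCas9 mRNA (1:1 by weight) at 2500, 500 or 100 ng RNA/mL, or 2500–250 ng/mL for tracr-modified guides. Editing at the target site read by amplicon next-generation sequencing of extracted genomic DNA.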

Molecule	Cyno Primary Hepatocyte Editing % 100 [1] [%]	Cyno Primary Hepatocyte Editing % 500 [1] [%]	Cyno Primary Hepatocyte Editing % 2500 [1] [%]	Human Primary Hepatocyte Editing % 100 [2] [%]	Human Primary Hepatocyte Editing % 500 [2] [%]	Human Primary Hepatocyte Editing % 2500 [2] [%]
GA220: PCSK9 gRNA; protospacer GTGCTCAACTGCCAAGGGAA (SEQ ID NO: 214) (nucleic acid, sugars from the 5' end m3 r94 m3, linkages s3 o93 s3 (s phosphorothioate, o phosphodiester), T or U not given here) guide: GUGCUCAACUGCCAAGGGAAGUUUUAGAGCUAGAAAUAGCAAGUUAAAAUAAGGCUAGUCCGUUAUCAACUUGAAAAAGUGGCACCGAGUCGGUGCUUUU	3.13	12.39	45.17	2.17	9.12	21.87
GA215: PCSK9 gRNA; protospacer CAGCGGCCGGGATGCCGGCG (SEQ ID NO: 209) (nucleic acid, sugars from the 5' end m3 r94 m3, linkages s3 o93 s3 (s phosphorothioate, o phosphodiester), T or U not given here) guide: CAGCGGCCGGGAUGCCGGCGGUUUUAGAGCUAGAAAUAGCAAGUUAAAAUAAGGCUAGUCCGUUAUCAACUUGAAAAAGUGGCACCGAGUCGGUGCUUUU		1.07	7.52	0.13	1.01	4.94
GA212: PCSK9 gRNA; protospacer CGGGATGCCGGCGTGGCCAA (SEQ ID NO: 206) (nucleic acid, sugars from the 5' end m3 r94 m3, linkages s3 o93 s3 (s phosphorothioate, o phosphodiester), T or U not given here) guide: CGGGAUGCCGGCGUGGCCAAGUUUUAGAGCUAGAAAUAGCAAGUUAAAAUAAGGCUAGUCCGUUAUCAACUUGAAAAAGUGGCACCGAGUCGGUGCUUUU	1.96	16.53	54.89	1.17	5.59	12.45
GA217: PCSK9 gRNA; protospacer GTGGTCAGCGGCCGGGATGC (SEQ ID NO: 211) (nucleic acid, sugars from the 5' end m3 r94 m3, linkages s3 o93 s3 (s phosphorothioate, o phosphodiester), T or U not given here) guide: GUGGUCAGCGGCCGGGAUGCGUUUUAGAGCUAGAAAUAGCAAGUUAAAAUAAGGCUAGUCCGUUAUCAACUUGAAAAAGUGGCACCGAGUCGGUGCUUUU	2.6	10.2	39.21	0.77	2.75	15.31
GA218: PCSK9 gRNA; protospacer CGCTGACCACCCCTGCCAGG (SEQ ID NO: 212) (nucleic acid, sugars from the 5' end m3 r94 m3, linkages s3 o93 s3 (s phosphorothioate, o phosphodiester), T or U not given here) guide: CGCUGACCACCCCUGCCAGGGUUUUAGAGCUAGAAAUAGCAAGUUAAAAUAAGGCUAGUCCGUUAUCAACUUGAAAAAGUGGCACCGAGUCGGUGCUUUU	5.42	19.95	58.66	3.81	8.96	31.71
GA216: PCSK9 gRNA; protospacer CCGGGATGCCGGCGTGGCCA (SEQ ID NO: 210) (nucleic acid, sugars from the 5' end m3 r94 m3, linkages s3 o93 s3 (s phosphorothioate, o phosphodiester), T or U not given here) guide: CCGGGAUGCCGGCGUGGCCAGUUUUAGAGCUAGAAAUAGCAAGUUAAAAUAAGGCUAGUCCGUUAUCAACUUGAAAAAGUGGCACCGAGUCGGUGCUUUU	1.77	4.97	37.79	0.95	3.7	14.65
GA214: PCSK9 gRNA; protospacer CCTTGGCCACGCCGGCATCC (SEQ ID NO: 208) (nucleic acid, sugars from the 5' end m3 r94 m3, linkages s3 o93 s3 (s phosphorothioate, o phosphodiester), T or U not given here) guide: CCUUGGCCACGCCGGCAUCCGUUUUAGAGCUAGAAAUAGCAAGUUAAAAUAAGGCUAGUCCGUUAUCAACUUGAAAAAGUGGCACCGAGUCGGUGCUUUU	3.06	14.84	50.35	1.94	6.28	22.92
GA219: PCSK9 gRNA; protospacer GGCAGGGGTGGTCAGCGGCC (SEQ ID NO: 213) (nucleic acid, sugars from the 5' end m3 r94 m3, linkages s3 o93 s3 (s phosphorothioate, o phosphodiester), T or U not given here) guide: GGCAGGGGUGGUCAGCGGCCGUUUUAGAGCUAGAAAUAGCAAGUUAAAAUAAGGCUAGUCCGUUAUCAACUUGAAAAAGUGGCACCGAGUCGGUGCUUUU	0.35	11.89	48.67	1.28	4.57	15.97
GA213: PCSK9 gRNA; protospacer CGTGCTCAACTGCCAAGGGA (SEQ ID NO: 207) (nucleic acid, sugars from the 5' end m3 r94 m3, linkages s3 o93 s3 (s phosphorothioate, o phosphodiester), T or U not given here) guide: CGUGCUCAACUGCCAAGGGAGUUUUAGAGCUAGAAAUAGCAAGUUAAAAUAAGGCUAGUCCGUUAUCAACUUGAAAAAGUGGCACCGAGUCGGUGCUUUU	2.73	16.35	45.22	2.17	8.77	24.28
GA159: PCSK9 gRNA; protospacer GCGTTCCGAGGAGGACGGCC (SEQ ID NO: 153) (nucleic acid) guide: mG*mC*mG*rUrUrCrCrGrArGrGrArGrGrArCrGrGrCrCrGrUrUrUrUrArGrArGrCrUrArGrArArArUrArGrCrArArGrUrUrArArArArUrArArGrGrCrUrArGrUrCrCrGrUrUrArUrCrArArCrUrUrGrArArArArArGrUrGrGrCrArCrCrGrArGrUrCrGrGrUrGrCrU*mU*mU*mU	1.19	3.69	12.21	1.35	3.74	14.68
GA221: PCSK9 gRNA; protospacer TCATGGCACCCACCTGGCAG (SEQ ID NO: 215) (nucleic acid, sugars from the 5' end m3 r94 m3, linkages s3 o93 s3 (s phosphorothioate, o phosphodiester), T or U not given here) guide: UCAUGGCACCCACCUGGCAGGUUUUAGAGCUAGAAAUAGCAAGUUAAAAUAAGGCUAGUCCGUUAUCAACUUGAAAAAGUGGCACCGAGUCGGUGCUUUU	2.82	20.27	57.4	1.11	7.48	29.35
